Laboratory results reported in patent US20030157645.
Changes are numbered by the printed parent chain. Names and notes keep the numbering of the source.

Biological target: fluorescent labeled casein or bovine serum albumin molecules

B1: Subtilisin E (wild type) (protein)
chain: AQSVPYGISQIKAPALHSQGYTGSNVKVAVIDSGIDSSHPDLNVRGGASFVPSETNPYQDGSSHGTHVAGTIAALNNSIGVLGVSPSASLYAVKVLDSTGSGQYSWIINGIEWAISNNMDVINMSLGGPTGSTALKTVVDKAVSSGIVVAAAAGNEGSSGSTSTVGYPAKYPSTIAVGAVNSSNQRASFSSAGSELDVMAPGVSIQSTLPGGTYGAYNGTSMATPHVAGAAALILSKHPTWTNAQVRDRLESTATYLGNSFYYGKGLINVQAAAQ
Km: 194 µM

B2: Variant 22 (E54D/Q103R/T133K/E156A/Y217H) (protein)
chain: B1 chain with E54D, Q103R, T133K, E156A, Y217H
Km: 26 µM

B3: Variant 1 (Y6N/I31L/S38T/F50I/Q103R) (protein)
chain: B1 chain with Y6N, I31L, S38T, F50I, Q103R
Km: 117 µM

B4: Variant 4 (Q103R/V138A/A150V/E156A/Y217H/Q271H) (protein)
chain: B1 chain with Q103R, V138A, A150V, E156A, Y217H, Q271H
Km: 71 µM
